Measured values: PMC1847435, “Structural investigations of the ferredoxin and terminal oxygenase components of the biphenyl 2,3-dioxygenase from Sphingobium yanoikuyae B1” (BMC Structural Biology, 2007)

B2: Biphenyl 2,3-dioxygenase from Sphingobium yanoikuyae strain B1, terminal oxygenase α subunit (enzyme)
chain: MSSDATLVDTVNASQSRQVFWDEDVYALEIERIFSRAWLMLGHESLVPKPGDFITTYMAEDKVILSHQSDGTFRAFINSCSHRGNQICHADSGNAKAFVCNYHGWVFGQDGSLVDVPLESRCYHNSLDKQKLAAKSVRVETYKGFIFGCHDPEAPSLEDYLGEFRYYLDTIWEGAGGGMELLGPPMKSLLQCNWKVPAENFIGDGYHVGWTHAAALSQIGGELAGLAGNRADIPFDDLGLQFTTRHGHGFGVIDNAAAGLHIKREGWTKFLEDTRGEVRRKFGPERERLYLGHWNCSIFPNCSFLYGTNTFKIWHPRGPHEIEVWTYTIVPRDADPATKSMIQREAIRTFGTAGTLESDDGENMSSATYINRGVITRNGRMNSTMGVGYEGPHPVYPGIVGISFIGETSYRGFYRFWKEMIDAPDWASVKANDDTWDSVFPNRNFWNEKLNAAE
notes: α subunit of biphenyl 2,3-dioxygenase (BPDO-OB1), Sphingobium yanoikuyae B1, encoded by bphA1f; the α subunit consists of 454 residues; residues 6-454 modelled in the structure; Co-expressed with the β subunit (bphA1fA2f in one vector); also called BPDO-OB1 α subunit; source: cloned from B1 into pET101D, expressed as described in Yu et al. [45], purified

Assays:
[1] = target: the molecule itself; test: crystal structure; purified BPDO-OB1 at 20 mg/ml in 20 mM potassium phosphate pH 6.8; space group P3(1)21, complete α3β3 in the asymmetric unit; native (1.70 Å) and biphenyl-soaked crystals
[2] = target: B2; test: as above; details: both partners purified

B1: Biphenyl 2,3-dioxygenase from Sphingobium yanoikuyae strain B1, terminal oxygenase β subunit (enzyme)
chain: MSSEQIPVTPDVHYDIEAHYRAEVRMFQTGQYREWLQGMVAEDIHYWMPIYEQRLTRDRRPDPTPDDAAIYNDDFGELKQRVERLYSGQVWMEDPPSKIRYFVSNVEAFEAGNGELDVLSNILVYRNRRQTEVTVHTLGREDKLRRDGNGFKVFRRKLILDARVTQDKNLYFFC
notes: β subunit of biphenyl 2,3-dioxygenase (BPDO-OB1), Sphingobium yanoikuyae B1, encoded by bphA2f; residues 5-174 modelled in the structure; Co-expressed with the α subunit (bphA1fA2f in one vector); also called BPDO-OB1 β subunit; source: cloned from B1 into pET101D, expressed as described in Yu et al. [45], purified
[1]
  stoichiometry N: 3
[2]
  binding result: binds

## B2
[1]
  stoichiometry N: 3
